Assay results taken from publication PMC2886027.

Target: T1, DraTopIB (Deinococcus radiodurans, UniProt Q9RWH8 1-346)
T1 sequence: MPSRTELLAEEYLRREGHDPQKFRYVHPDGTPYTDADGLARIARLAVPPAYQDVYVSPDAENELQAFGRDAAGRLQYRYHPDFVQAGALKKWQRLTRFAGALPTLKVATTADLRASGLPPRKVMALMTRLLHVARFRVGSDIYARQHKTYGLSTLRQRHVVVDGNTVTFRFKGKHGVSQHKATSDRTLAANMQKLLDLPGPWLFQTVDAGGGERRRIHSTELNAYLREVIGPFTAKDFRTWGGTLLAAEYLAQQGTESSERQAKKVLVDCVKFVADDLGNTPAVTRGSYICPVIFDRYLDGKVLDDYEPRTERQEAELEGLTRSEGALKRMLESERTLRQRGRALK
Assay: crystal structure

B1: 12-bp duplex (dsDNA)
DNA 1: GAATAAGGGCGC
DNA 2: GCGCCCTTATTC
B1: binds.
